In US20170306031A1 (NGM BIOPHARMACEUTICALS, published 2017):
Where two headings read alike, the source gives them in different places.

Key:
[1] = target: T1, human GFRAL expressed on cells (human, UniProt Q6UXV0 20-394); assay: cell-based or functional assay
T1 sequence: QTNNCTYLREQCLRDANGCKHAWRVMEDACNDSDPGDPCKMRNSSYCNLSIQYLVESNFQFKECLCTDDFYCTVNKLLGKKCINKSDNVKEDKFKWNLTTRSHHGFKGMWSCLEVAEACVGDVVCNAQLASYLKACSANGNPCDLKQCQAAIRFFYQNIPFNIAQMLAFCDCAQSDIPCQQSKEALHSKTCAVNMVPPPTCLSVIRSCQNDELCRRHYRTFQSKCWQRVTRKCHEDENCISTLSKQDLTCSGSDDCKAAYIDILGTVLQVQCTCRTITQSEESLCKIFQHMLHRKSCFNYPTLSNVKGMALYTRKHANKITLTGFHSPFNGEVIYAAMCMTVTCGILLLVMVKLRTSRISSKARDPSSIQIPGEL

[2] = target: T2, human GFRAL (analyte in Biacore assays) (human, UniProt Q6UXV0 19-351, limits assumed); assay: Biacore SPR, antibody captured, human GFRAL injected
T2 construct: injected in solution over captured antibody; also called hGFRAL
T2 sequence: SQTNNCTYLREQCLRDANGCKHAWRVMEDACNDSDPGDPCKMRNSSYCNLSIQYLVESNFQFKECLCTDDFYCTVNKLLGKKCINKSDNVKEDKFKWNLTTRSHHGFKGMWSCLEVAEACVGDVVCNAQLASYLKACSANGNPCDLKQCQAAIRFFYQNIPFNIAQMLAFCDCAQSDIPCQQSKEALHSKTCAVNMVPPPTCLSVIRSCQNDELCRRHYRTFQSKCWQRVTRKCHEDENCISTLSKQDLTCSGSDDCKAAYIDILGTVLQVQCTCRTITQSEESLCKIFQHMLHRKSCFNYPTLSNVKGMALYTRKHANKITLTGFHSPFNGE
Experimental: Exemplary humanized anti-GFRAL antibodies identified in Example 6 were assayed for their binding affinity to human GFRAL. Binding affinity measurements were made in Biacore based assays. For example, equilibrium dissociation constant (KD) measurements were carried out with purified antibodies to evaluate their binding to human GFRAL. Using methods described in Example II, anti-mouse Fc antibody (Sigma-Aldrich, St. Louis, Mo.) was immobilized on all four flow cells of a CM5 chip using amine coupling reagents (GE Healthcare LifeSciences, Piscataway, N.J.). Purified humanized anti-GFRAL antibodies were captured (˜100 RUs) on flow cells 2, 3 and 4 using flow cell 1 as a reference. This was followed by injection of human GFRAL in PBS-P buffer) at a flow rate of 70 μL/min and the binding kinetics were evaluated at 25° C.

[3] = target: T1, human GFRAL expressed on cells; assay: cell-based or functional assay; remark: listed apart in the source
[4] = target: T2, human GFRAL (analyte in Biacore assays); assay: Biacore SPR, antibody captured, GFRAL injected
[5] = target: T3, mouse GFRAL (analyte in Biacore assays) (mouse, UniProt Q6SJE0 20-349, limits assumed); assay: Biacore SPR, antibody captured, GFRAL injected
T3 construct: injected in solution over captured antibody
T3 sequence: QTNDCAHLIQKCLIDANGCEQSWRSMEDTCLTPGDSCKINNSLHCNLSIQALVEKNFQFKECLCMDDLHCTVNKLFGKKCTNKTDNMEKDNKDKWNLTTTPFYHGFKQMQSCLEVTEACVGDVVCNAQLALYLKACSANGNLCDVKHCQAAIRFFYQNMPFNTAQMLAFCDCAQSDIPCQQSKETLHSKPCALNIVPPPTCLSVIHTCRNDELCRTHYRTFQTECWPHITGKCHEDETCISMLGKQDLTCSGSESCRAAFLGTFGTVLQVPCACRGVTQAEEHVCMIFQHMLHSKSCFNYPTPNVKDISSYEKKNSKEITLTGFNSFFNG

[6] = target: T4, mouse GFRAL expressed on cells (mouse, UniProt Q6SJE0 20-393); assay: cell-based or functional assay
T4 sequence: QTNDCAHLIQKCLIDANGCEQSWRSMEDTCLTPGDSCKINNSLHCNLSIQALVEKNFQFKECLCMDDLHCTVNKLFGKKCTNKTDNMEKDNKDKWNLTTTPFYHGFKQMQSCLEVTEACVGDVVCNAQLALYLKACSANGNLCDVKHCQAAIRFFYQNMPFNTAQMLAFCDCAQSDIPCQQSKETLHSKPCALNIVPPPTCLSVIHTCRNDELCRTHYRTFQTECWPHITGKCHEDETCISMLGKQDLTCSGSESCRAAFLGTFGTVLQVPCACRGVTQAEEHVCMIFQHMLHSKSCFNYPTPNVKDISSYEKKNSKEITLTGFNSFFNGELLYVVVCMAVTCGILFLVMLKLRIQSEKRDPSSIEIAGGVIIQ

[7] = target: T1, human GFRAL expressed on cells; assay: cell-based or functional assay; remark: listed apart in the source
[8] = target: T1, human GFRAL expressed on cells; assay: cell-based or functional assay; remark: listed apart in the source
[9] = target: T1, human GFRAL expressed on cells; assay: cell-based or functional assay; remark: listed apart in the source
GFRα1 = target: T5, GFRα1 (UniProt P56159 25-429, limits assumed); assay: SPR, GFRα1 on chip surface (FIGS. 13A and 13B)
T5 construct: also called GNFR alpha 1; receptor GFRα1
T5 sequence (looked up): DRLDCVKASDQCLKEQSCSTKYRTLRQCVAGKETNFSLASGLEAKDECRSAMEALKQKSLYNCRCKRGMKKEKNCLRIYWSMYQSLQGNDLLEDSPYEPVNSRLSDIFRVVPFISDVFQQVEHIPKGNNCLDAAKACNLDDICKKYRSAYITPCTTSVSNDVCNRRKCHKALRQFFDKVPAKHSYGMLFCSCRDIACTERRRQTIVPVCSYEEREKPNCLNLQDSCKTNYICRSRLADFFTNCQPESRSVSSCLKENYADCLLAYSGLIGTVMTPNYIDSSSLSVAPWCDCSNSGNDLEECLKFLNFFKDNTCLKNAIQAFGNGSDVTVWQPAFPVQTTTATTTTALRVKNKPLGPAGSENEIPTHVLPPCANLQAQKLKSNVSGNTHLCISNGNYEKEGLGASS

Binder	IC50, ERK phosphorylation in U2OS hGFRAL/hRET cells [1] [nM]	Kd [2] [nM]	IC50, ELK1-luciferase reporter (hGFRAL/hRET) [3] [nM]	Kd [4] [nM]	koff [4] [s⁻¹]	Kd [5] [nM]	koff [5] [s⁻¹]	IC50, ELK1-luciferase reporter (mGFRAL/mRET) [6] [nM]	IC50, ELK1-luciferase reporter (hGFRAL/hRET) [7] [nM]	IC50, ELK1-luciferase reporter (hGFRAL/hRET) [8] [nM]	IC50, ERK phosphorylation in U2OS hGFRAL/hRET cells [9] [nM]	binding result (GFRα1)
antibody designated 5F12 (antibody, V domains shown, mouse hybridoma monoclonal; also called 5F12 Hybridoma) VH: QVQLKQSGTELVRPGASVKLSCKASGYTFTDYYINWVKQRPGQGLEWIARIYPGNGNTYHNEKFKGKATLTAEKSSSTAYMQLSSLTSEDSAVYFCAREGLYYDYDRYFDYWGQGTALTVSS VL: NIVLTQSPASLAVSLGQRATISCRASESVDTYGNSFMHWYQQKPGQPPKLLIYLASNLESGVPARFSGSGSRTDFTLTIDPVEADDAATYYCHQNNEDPPAFGGGTKLEIK	0.06	0.038	5.4	< 0.1	~1e-05	2.2	0.0009	6.28	0.834	–	–	–
antibody designated 3P10 (antibody, V domains shown, mouse hybridoma monoclonal; also called 3P10 Hybridoma; m3P10) VH: QIQLVQSGPELKKPGETVKISCKASGYTFTDYGVIWVKQAPGKALKWMGWINTYTGEPTYADDLKGRFAFSLETSASSASLQINNLKNEDTATYFCARRYGPEDIDYWGQGTTLTVSS VL: not shown	0.08	< 0.01	–	< 0.1	~1e-05	< 0.1	~1e-05	1.03	4.09	4.02	5.46	–
humanized anti-GFRAL antibody HC-344e/LC-344h (antibody, IgG1, V domains shown, humanized 3P10; also called h3P10) VH: QVQLVQSGAEVKKPGSSVKVSCKASGYTFTDYGVIWVRQAPGQGLEWMGWINTYTGEPTYADDLKGRVTFTADESTSTAYMELSSLRSEDTAVYYCARRYGPEDIDYWGQGTTVTVSS VL: DVVLTQSPLSLPVTLGQPASISCRASESVDNYGISFMSWFQQRPGQSPRLLIYAASHQGSGVPDRFSGSGSGTDFTLKISRVEAEDVGVYFCLQSKEVPWTFGGGTKVEIK	–	< 0.01	–	–	–	–	–	–	–	6.95	3.3	no binding
humanized anti-GFRAL antibody HC-344a/LC-344c (antibody, IgG1, V domains shown, humanized 3P10) VH: QVQLVQSGAEVKKPGSSVKVSCKASGYTFTDYGVIWVRQAPGQGLEWMGWINTYTGEPTYADDLKGRVTITADESTSTAYMELSSLRSEDTAVYYCARRYGPEDIDYWGQGTTVTVSS VL: DIVLTQSPLSLPVTLGQPASISCRASESVDNYGISFMSWFQQRPGQSPRLLIYAASHQGSGVPDRFSGSGSGTDFTLKISRVEAEDVGVYFCLQSKEVPWTFGGGTKVEIK	–	0.012	–	–	–	–	–	–	–	7.26	5.13	–
humanized anti-GFRAL antibody HC-344a/LC-344h (antibody, IgG1, V domains shown, humanized 3P10) VH: QVQLVQSGAEVKKPGSSVKVSCKASGYTFTDYGVIWVRQAPGQGLEWMGWINTYTGEPTYADDLKGRVTITADESTSTAYMELSSLRSEDTAVYYCARRYGPEDIDYWGQGTTVTVSS VL: DVVLTQSPLSLPVTLGQPASISCRASESVDNYGISFMSWFQQRPGQSPRLLIYAASHQGSGVPDRFSGSGSGTDFTLKISRVEAEDVGVYFCLQSKEVPWTFGGGTKVEIK	–	< 0.01	–	–	–	–	–	–	–	4.63	5.02	–
humanized anti-GFRAL antibody HC-344h/LC-344c (antibody, V domains shown, humanized 3P10) VH: QIQLVQSGAEVKKPGSSVKVSCKASGYTFTDYGVIWVRQAPGQGLKWMGWINTYTGEPTYADDLKGRVTFTADESTSTAYMELSSLRSEDTAVYYCARRYGPEDIDYWGQGTTVTVSS VL: DIVLTQSPLSLPVTLGQPASISCRASESVDNYGISFMSWFQQRPGQSPRLLIYAASHQGSGVPDRFSGSGSGTDFTLKISRVEAEDVGVYFCLQSKEVPWTFGGGTKVEIK	–	< 0.01	–	–	–	–	–	–	–	29.4	15.1	–
humanized anti-GFRAL antibody HC-344h/LC-344h (antibody, IgG1, V domains shown, humanized 3P10) VH: QIQLVQSGAEVKKPGSSVKVSCKASGYTFTDYGVIWVRQAPGQGLKWMGWINTYTGEPTYADDLKGRVTFTADESTSTAYMELSSLRSEDTAVYYCARRYGPEDIDYWGQGTTVTVSS VL: DVVLTQSPLSLPVTLGQPASISCRASESVDNYGISFMSWFQQRPGQSPRLLIYAASHQGSGVPDRFSGSGSGTDFTLKISRVEAEDVGVYFCLQSKEVPWTFGGGTKVEIK	–	< 0.01	–	–	–	–	–	–	–	5.7	2.18	–
humanized anti-GFRAL antibody HC-375h/LC-375j (antibody, IgG1, V domains shown, humanized 5F12) VH: QVQLVQSGAEVKKPGASVKVSCKASGYTFTDYYINWVRQAPGQRLEWIARIYPGNGNTYHNEKFKGRATLTRDKSASTAYMELSSLRSEDTAVYYCAREGLYYDYDRYFDYWGQGTLVTVSS VL: DIVLTQSPLSLPVTLGQPASISCRASESVDTYGNSFMHWYQQRPGQSPRLLIYLASNLESGVPDRFSGSGSRTDFTLKISRVEAEDVGVYYCHQNNEDPPAFGGGTKVEIK	–	0.06	7.29	–	–	–	–	–	–	–	–	–
